{
  "source": "patent US20120213801",
  "key": {"[1]": {"system": "T1, Flag-tagged Twist-1 WT from starved HEK293 cells (not phosphorylated)", "T1 sequence": "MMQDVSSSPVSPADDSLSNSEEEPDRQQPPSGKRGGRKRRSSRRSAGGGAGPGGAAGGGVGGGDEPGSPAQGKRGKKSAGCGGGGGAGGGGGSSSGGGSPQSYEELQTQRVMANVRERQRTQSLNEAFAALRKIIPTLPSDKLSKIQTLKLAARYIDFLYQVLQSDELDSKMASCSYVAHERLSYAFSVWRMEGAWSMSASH"}, "[2]": {"target": "T2, GST-Twist-1 (full-length, substrate of the in vitro kinase assay)", "T2 chain": "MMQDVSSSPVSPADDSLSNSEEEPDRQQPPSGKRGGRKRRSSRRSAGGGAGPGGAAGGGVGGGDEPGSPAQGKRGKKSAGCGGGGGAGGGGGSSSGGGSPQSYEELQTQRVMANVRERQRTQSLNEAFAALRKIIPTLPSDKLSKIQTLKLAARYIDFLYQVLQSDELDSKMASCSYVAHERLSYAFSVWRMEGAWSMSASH"}, "[3]": {"target": "T3, RERQRAQSLNEA-T121A", "T3 chain": "RERQRAQSLNEA"}, "[4]": {"target": "T4, RERQRTQALNEA-S123A", "T4 chain": "RERQRTQALNEA"}, "[5]": {"target": "T5, RERQRTQSLNEA-T121/5123", "T5 chain": "RERQRTQSLNEA"}, "[6]": {"target": "T6, RKRRSARRSAGG-S42A", "T6 chain": "RKRRSARRSAGG"}, "[7]": {"target": "T7, RKRRSSRRAAGG-S45A", "T7 chain": "RKRRSSRRAAGG"}, "[8]": {"target": "T8, RKRRSSRRSAGG-S42/S45", "T8 chain": "RKRRSSRRSAGG"}},
  "data": [
    {"molecule": "endogenous PKB kinase of HEK293 cells", "values": [
      {"measurement": "Twist-1 S42 phosphorylation after serum stimulation (Western blot; shRNA against PKB)", "setting": "[1]", "value": "Twist-1 S42 phosphorylation was not induced after serum stimulation of cells with a low PKB content"}
    ]},
    {"molecule": "activated recombinant PKBβ (protein) KVTMNDFDYLKLLGKGTFGKVILVREKATGRYYAMKILRKEVIIAKDEVAHTVTESRVLQNTRHPFLTALKYAFQTHDRLCFVMEYANGGELFFHLSRERVFTEERARFYGAEIVSALEYLHSRDVVYRDIKLENLMLDKDGHIKITDFGLCKEGISDGATMKTFCGTPEYLAPEVLEDNDYGRAVDWWGLGVVMYEMMCGRLPFYNQDHERLFELILMEEIRFPRTLSPEAKSLLAGLLKKDPKQRLGGGPSDAKEVMEHRFFLSINWQDVVQKKLLPPFKPQVTSEVDTRYFDDEFTAQSITITPPDRYDSLGLLELDQRTHFPQFSYSASIRE", "values": [
      {"measurement": "in vitro kinase assays followed by mass spectrometry (MS) analysis", "setting": "[2]", "value": "confirmed that PKB phosphorylates Twist-1 in vitro on two residues S42 and S123"},
      {"measurement": "phosphorylation of synthetic peptide (in vitro kinase assay, 32P-ATP, scintillation counting); no such loss, by implication", "setting": "[3]", "value": "Only substitution of serine to alanine at positions 42 and 123 resulted in almost complete loss of phosphorylation of the corresponding peptide by PKB"},
      {"measurement": "phosphorylation of synthetic peptide (in vitro kinase assay, 32P-ATP, scintillation counting); almost complete loss", "setting": "[4]", "value": "Only substitution of serine to alanine at positions 42 and 123 resulted in almost complete loss of phosphorylation of the corresponding peptide by PKB"},
      {"measurement": "phosphorylation of synthetic peptide (in vitro kinase assay, 32P-ATP, scintillation counting); parent peptide, phosphorylated by implication", "setting": "[5]", "value": "Only substitution of serine to alanine at positions 42 and 123 resulted in almost complete loss of phosphorylation of the corresponding peptide by PKB"},
      {"measurement": "phosphorylation of synthetic peptide (in vitro kinase assay, 32P-ATP, scintillation counting); almost complete loss", "setting": "[6]", "value": "Only substitution of serine to alanine at positions 42 and 123 resulted in almost complete loss of phosphorylation of the corresponding peptide by PKB"},
      {"measurement": "phosphorylation of synthetic peptide (in vitro kinase assay, 32P-ATP, scintillation counting); no such loss, by implication", "setting": "[7]", "value": "Only substitution of serine to alanine at positions 42 and 123 resulted in almost complete loss of phosphorylation of the corresponding peptide by PKB"},
      {"measurement": "phosphorylation of synthetic peptide (in vitro kinase assay, 32P-ATP, scintillation counting); parent peptide, phosphorylated by implication", "setting": "[8]", "value": "Only substitution of serine to alanine at positions 42 and 123 resulted in almost complete loss of phosphorylation of the corresponding peptide by PKB"}
    ]}
  ]
}
